From patent US20200024330A1

Key:
Test in all cases: cell-based or functional assay
[1] = molecular target: HIV-1 92RW009 envelope glycoprotein (Env) (HIV-1)
[2] = molecular target: HIV-1 92TH021 envelope protein (Env) on pseudovirus (HIV-1)
[3] = molecular target: HIV-1 92UG005 envelope glycoprotein (Env) on pseudovirus (HIV-1)
[4] = molecular target: HIV-1 94KE105 envelope glycoprotein (Env) (HIV-1)
[5] = molecular target: HIV-1 Env of isolate 92UG024 (clade D) (HIV-1)
[6] = molecular target: HIV-1 Env of isolate CMU02 (HIV-1)
[7] = molecular target: HIV-1 Env of isolate MGRM-AE-003 (HIV-1)
[8] = molecular target: HIV-1 Env of isolate MGRM-G-024 (clade G pseudovirus) (HIV-1)
[9] = molecular target: HIV-1 Env of pseudovirus 6535.3 (Acute), clade B (HIV-1)
[10] = molecular target: HIV-1 Env of pseudovirus MGRM-Chronic-B-004, clade B (HIV-1)
[11] = molecular target: HIV-1 Env of pseudovirus VLGCB3, clade B (HIV-1)
[12] = molecular target: HIV-1 MGRM-C-008 Env (HIV-1)
[13] = molecular target: HIV-1 MGRM-C-010 Env (HIV-1)
[14] = molecular target: HIV-1 MGRM-C-015 Env (HIV-1)
[15] = molecular target: HIV-1 MGRM-C-025 Env (HIV-1)
[16] = molecular target: HIV-1 MGRM-F1-012 Env (pseudovirus) (HIV-1)
[17] = molecular target: aMLV envelope protein on pseudovirus
[18] = molecular target: HIV-1 Env of isolate 98CN006 (HIV-1)
[19] = molecular target: HIV-1 Env of isolate APV-13 (pseudovirus) (HIV-1 isolate APV-13, subtype B)
[20] = molecular target: HIV-1 Env of isolate MGRM-A-011 (clade A), on pseudovirus (HIV-1)
[21] = molecular target: HIV-1 Env of isolate MGRM-A-012 (clade A), on pseudovirus (HIV-1)
[22] = molecular target: HIV-1 Env of isolate MGRM-A-013 (clade A), on pseudovirus (HIV-1)
[23] = molecular target: HIV-1 Env of isolate MGRM-Chronic-B-008 (HIV-1)
[24] = molecular target: HIV-1 Env of isolate MGRM-D-016 (HIV-1)
[25] = molecular target: HIV-1 Env of isolate MGRM-D-019 (HIV-1)
[26] = molecular target: HIV-1 Env of isolate MGRM-F1-017 (subtype F), on pseudovirus (HIV-1)
[27] = molecular target: HIV-1 Env of isolate PVO.4 (HIV-1)
[28] = molecular target: HIV-1 JR-CSF Env D167A (HIV-1 (isolate JR-CSF)) (UniProt P20871)
[29] = molecular target: HIV-1 JR-CSF Env N160K (HIV-1 (isolate JR-CSF)) (UniProt P20871)
[30] = molecular target: HIV-1 JR-CSF Env N188A (HIV-1 (isolate JR-CSF)) (UniProt P20871)
[31] = molecular target: HIV-1 JR-CSF Env V182A (HIV-1 (isolate JR-CSF)) (UniProt P20871)

1443_C16 (PG16) (TCN-116) (antibody), sequence (VH): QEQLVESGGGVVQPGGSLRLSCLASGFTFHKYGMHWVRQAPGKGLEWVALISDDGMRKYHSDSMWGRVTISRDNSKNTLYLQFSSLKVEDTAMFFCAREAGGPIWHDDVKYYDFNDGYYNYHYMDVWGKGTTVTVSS
1443_C16 (PG16) (TCN-116) (antibody), sequence (VL): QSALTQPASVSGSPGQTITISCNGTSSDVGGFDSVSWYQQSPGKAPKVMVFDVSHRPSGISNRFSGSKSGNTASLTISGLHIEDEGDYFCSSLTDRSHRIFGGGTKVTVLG

| Substance | IC50 (µg/ml), pseudovirus neutralization [1] [µg/mL] | neutralization IC50 [2] [µg/mL] | IC90 (pseudovirus neutralization) [3] [µg/mL] | IC50 (µg/ml), pseudovirus neutralization [4] [µg/mL] | IC50 (µg/ml), pseudovirus neutralization [5] [µg/mL] | IC50 (µg/ml), pseudovirus neutralization [6] [µg/mL] | IC50 (µg/ml), pseudovirus neutralization [7] [µg/mL] | IC50 (µg/ml), pseudovirus neutralization [8] [µg/mL] | IC50 (µg/ml), pseudovirus neutralization [9] [µg/mL] | IC50 (µg/ml), pseudovirus neutralization [10] [µg/mL] | IC50 (µg/ml), pseudovirus neutralization [11] [µg/mL] | IC50 [12] [µg/mL] | IC50 [13] [µg/mL] | IC50 [14] [µg/mL] | IC50 [15] [µg/mL] | IC50 (µg/ml), pseudovirus neutralization [16] [µg/mL] | neutralization IC50 [17] [µg/mL] | IC50 [18] [µg/mL] | IC50 (µg/mL) neutralization [19] [µg/mL] | IC50, single-round pseudovirus neutralization [20] [µg/mL] | also measured |
| --- | --- | --- | --- | --- | --- | --- | --- | --- | --- | --- | --- | --- | --- | --- | --- | --- | --- | --- | --- | --- | --- |
| 2G12 (antibody) | 26.1 | > 50 | > 50 | 7.22 | 0.42 | > 50 | > 50 | > 50 | 3.85 | 8.65 | 7.9 | > 50 | > 50 | 1.75 | > 50 | 1.81 | > 50 | – | – | – | – |
| 5136_H01 (PGT-131) (antibody) | – | – | – | – | – | – | – | – | – | – | – | – | – | – | – | – | – | 35.3 | 0.189 | > 50 | IC50, single-round pseudovirus neutralization [21]: > 50 µg/mL; IC50, single-round pseudovirus neutralization [22]: > 50 µg/mL; IC50 [23]: > 50 µg/mL; IC50 [24]: > 50 µg/mL; IC50 [25]: > 50 µg/mL; IC50, pseudovirus neutralization [26]: > 50 µg/mL; IC50 [27]: > 50 µg/mL; Fold IC50 increase relative to wild-type [28]: 1.2 fold; Fold IC50 increase relative to wild-type [29]: 0.4 fold; Fold IC50 increase relative to wild-type [30]: 0.9 fold; Fold IC50 increase relative to wild-type [31]: 1.1 fold |
| 1443_C16 (PG16) (TCN-116) (antibody) | 0.11 | 0.127 | > 50 | 6.13 | 24 | 43.6 | 0.03 | 0.01 | 36.9 | 0.01 | 0.4 | > 50 | > 50 | 0.26 | 0.04 | 0.003 | > 50 | – | – | – | IC50, pseudovirus neutralization (TZM-bl) [27]: 12.3 µg/mL |
| 4E10 (antibody) | > 50 | 1.9 | > 50 | 7.63 | 2.17 | 0.72 | 0.34 | 1.57 | 1.23 | 3.7 | 5.76 | 2.97 | 11 | 2.52 | 5.58 | 0.37 | > 50 | – | – | – | – |
| 1495_C14 (PGC14) (antibody) | > 50 | > 50 | – | > 50 | > 50 | > 50 | > 50 | > 50 | 35 | > 50 | 21 | > 50 | > 50 | > 50 | > 50 | > 50 | > 50 | – | – | – | – |
| 5343_B08 (PGT-135) (antibody) | – | – | – | – | – | – | – | – | – | – | – | – | – | – | – | – | – | 0.429 | 0.716 | > 50 | IC50, single-round pseudovirus neutralization [21]: > 50 µg/mL; IC50, single-round pseudovirus neutralization [22]: > 50 µg/mL; IC50 [23]: > 50 µg/mL; IC50 [24]: > 50 µg/mL; IC50 [25]: > 50 µg/mL; IC50, pseudovirus neutralization [26]: 7.79 µg/mL; IC50 [27]: > 50 µg/mL; Fold IC50 increase relative to wild-type [28]: 0.7 fold; Fold IC50 increase relative to wild-type [29]: 7.7 fold; Fold IC50 increase relative to wild-type [30]: 0.4 fold; Fold IC50 increase relative to wild-type [31]: 1.5 fold |
| b12 (antibody) | > 50 | 9.99 | > 50 | > 50 | 45.6 | 29.3 | > 50 | 2.38 | 1.93 | 0.26 | 0.15 | 1.51 | > 50 | 13.3 | > 50 | > 50 | > 50 | – | – | – | – |
| 5147_N06 (PGT-130) (antibody) | – | – | – | – | – | – | – | – | – | – | – | – | – | – | – | – | – | 0.258 | 0.052 | > 50 | IC50 (ug/ml), neutralizing activity [3]: 0.474 µg/mL; neutralization IC50 [5]: > 10 µg/mL; neutralization IC80 [5]: > 10 µg/mL; neutralization IC90 [5]: > 10 µg/mL; neutralization IC95 [5]: > 10 µg/mL; IC50, single-round pseudovirus neutralization [21]: > 50 µg/mL; IC50, single-round pseudovirus neutralization [22]: > 50 µg/mL; IC50 [23]: 5.18 µg/mL; IC50 [24]: > 50 µg/mL; IC50 [25]: > 50 µg/mL; IC50, pseudovirus neutralization [26]: > 50 µg/mL; IC50 [27]: 5.17 µg/mL; Fold IC50 increase relative to wild-type [28]: 1.2 fold; Fold IC50 increase relative to wild-type [29]: 3.4 fold; Fold IC50 increase relative to wild-type [30]: 1 fold; Fold IC50 increase relative to wild-type [31]: 1.2 fold |
| 5114_A19 (PGT-128) (antibody) | – | – | – | – | – | – | – | – | – | – | – | – | – | – | – | – | – | 0.015 | 0.008 | > 50 | IC50, single-round pseudovirus neutralization [21]: 0.025 µg/mL; IC50, single-round pseudovirus neutralization [22]: 0.008 µg/mL; IC50 [23]: 0.143 µg/mL; IC50 [24]: > 50 µg/mL; IC50 [25]: > 50 µg/mL; IC50, pseudovirus neutralization [26]: 11.7 µg/mL; IC50 [27]: 0.005 µg/mL; Fold IC50 increase relative to wild-type [28]: 0.3 fold; Fold IC50 increase relative to wild-type [29]: 1 fold; Fold IC50 increase relative to wild-type [30]: 1.3 fold; Fold IC50 increase relative to wild-type [31]: 1.2 fold |
| 2F5 (antibody) | 39.1 | 1.51 | > 50 | > 50 | 0.95 | 0.6 | 0.24 | 1.07 | 2.76 | 2.41 | > 50 | > 50 | > 50 | > 50 | > 50 | > 50 | > 50 | – | – | – | – |
